Assay results reported in patent publication US9493781B2, “Synthetic brassica-derived chloroplast transit peptides” (DOW AGROSCIENCES LLC, priority 2012, dated 2016).

Columns and labels:
Arabidopsis [1] = test: dgt-28, dgt-32, dgt-33, dgt-3, dgt-7 transformed Arabidopsis (T1, T2, T3) response to postemergence glyphosate, % visual injury; type: in vivo, Arabidopsis thaliana; details: 14 days after application
In short: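 Transgenic T1, T2 and T3 Arabidopsis (low-copy events for T2/T3, hemizygous and homozygous in T2) sprayed postemergence with glyphosate at 105, 420, 1,680 or 3,360 g ae/ha. Visual injury scored 2 weeks after treatment as mean, SD and range. Non-transformed Columbia served as sensitive control.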

Arabidopsis [2] = test: Heritability progeny test of T1 families (T2 plants) with glufosinate, Arabidopsis; type: in vivo, Arabidopsis thaliana; details: progeny test of 100 T2 plants, glufosinate 200 g ae/ha
From the text: Heritability. Confirmed transgenic T1 Arabidopsis events were self-pollinated to produce T2 seed. These seed were progeny tested by applying Ignite™ herbicide containing glufosinate (200 g ae/ha) to 100 random T2 siblings. […] The T1 families (T2 plants) segregated in the anticipated 3 Resistant: 1 Sensitive model for a dominantly inherited single locus with Mendelian inheritance as determined by Chi square analysis (P>0.05). […] Seed were collected from 5 to 15 T2 individuals (T3 seed). Twenty-five T3 siblings from each of 3-4 randomly-selected T2 families were progeny tested as previously described.

[3] = Table 8, T1 Arabidopsis, 105 g ae/ha glyphosate
[4] = Table 8, T1 Arabidopsis, 420 g ae/ha glyphosate
[5] = Table 8, T1 Arabidopsis, 1680 g ae/ha glyphosate
[6] = Table 8, T1 Arabidopsis, 3360 g ae/ha glyphosate
[7] = Table 10, T1 Arabidopsis, 1,680 g ae/ha glyphosate
[8] = Table 12, T2 Arabidopsis, 1 copy, 420 g ae/ha glyphosate
[9] = Table 12, T2 Arabidopsis, 1 copy, 840 g ae/ha glyphosate
[10] = Table 12, T2 Arabidopsis, 1 copy, 1680 g ae/ha glyphosate
[11] = Table 12, T2 Arabidopsis, 1 copy, 3360 g ae/ha glyphosate

B1: pDAB105532: TraP9 v2 -- dgt-28 v5: binary construct TraP9 v2: dgt-28 v5 (SEQ ID NO:35) (nucleic acid)
DNA: ATGGCACAAGCCAGCCGTATCTGCCAGAATCCATGTGTGATATCCAATCTCCCCAAAAGCAACCACCGTAAGTCCCCTTTCTCTGTCTCACTCAAGACGCATCAGCCTAGAGCCTCTTCATGGGGACTTAAGAAGTCTGGCACCATGCTGAACGGTTCAGTGATTAGACCCGTCAAGGTGACAGCTTCTGTTTCCGCAGCAAGAGGGATGCCAGCCTTGTCTTTACCTGGATCAAAGAGTATCACAGCTAGGGCACTCTTTCTTGCTGCTGCTGCTGATGGGGTTACTACTTTGGTGAGGCCATTGAGAAGTGACGACACAGAAGGATTCGCTGAGGGGTTAGTTCGTTTAGGCTATCGTGTAGGGAGGACACCCGATACTTGGCAAGTCGATGGCAGACCACAAGGACCAGCAGTGGCTGAGGCTGACGTCTACTGTAGAGACGGAGCAACCACCGCTAGATTCTTGCCAACCTTAGCAGCTGCTGGTCACGGAACATACAGATTTGATGCTTCACCACAGATGAGGAGACGTCCTCTTTTGCCCTTAAGCAGAGCCTTGAGGGATTTGGGTGTCGATCTTAGACACGAAGAAGCTGAAGGTCATCACCCTCTGACTGTCCGTGCTGCTGGGGTTGAAGGAGGAGAGGTTACTTTGGATGCTGGTCAGTCAAGTCAGTATCTCACTGCCTTGTTGCTCCTTGGTCCCCTTACAAGACAAGGACTGAGGATAAGGGTTACTGATTTGGTGTCAGCACCATACGTGGAGATTACGCTTGCAATGATGAGGGCTTTCGGAGTTGAAGTGGCAAGGGAGGGAGATGTGTTCGTTGTTCCACCTGGTGGATATCGTGCAACTACGTATGCTATAGAACCCGACGCAAGTACTGCTTCTTACTTCTTCGCAGCTGCTGCTTTGACTCCTGGAGCTGAAGTGACTGTACCTGGGTTAGGCACGGGAGCACTTCAAGGAGATTTGGGATTTGTAGATGTCTTAAGGAGAATGGGAGCCGAGGTGTCCGTAGGAGCTGATGCAACCACTGTTAGAGGAACTGGTGAATTGCGTGGCCTTACAGCCAACATGAGAGACATAAGTGATACGATGCCGACCCTCGCTGCAATAGCACCCTTTGCTAGTGCTCCAGTTAGAATCGAGGATGTTGCCAACACTCGTGTCAAAGAATGTGACAGACTTGAGGCTTGTGCAGAGAACCTTAGGAGGTTGGGAGTAAGGGTTGCAACGGGTCCGGACTGGATTGAGATACACCCTGGTCCAGCTACTGGTGCTCAAGTCACAAGCTATGGTGATCACAGAATTGTGATGTCATTTGCAGTGACTGGACTTCGTGTGCCTGGGATCAGCTTCGACGACCCTGGCTGTGTTCGTAAGACTTTTCCTGGGTTTCACGAGGCTTTCGCAGAATTGAGGCGTGGCATTGGGAGCTGA
modifications: In-frame fusion of dgt-28 v5 and TraP9 v2
% Injury Ave (Arabidopsis [1]; [3]): 17.5% | % Injury Range (%) (Arabidopsis [1]; [3]): 0-60% | No. plants with 20-40% injury (Arabidopsis [1]; [3]): 0 | No. plants with <20% injury (Arabidopsis [1]; [3]): 3 | No. plants with >40% injury (Arabidopsis [1]; [3]): 1 | % Injury Ave (Arabidopsis [1]; [4]): 39.5% | % Injury Range (%) (Arabidopsis [1]; [4]): 18-70% | No. plants with 20-40% injury (Arabidopsis [1]; [4]): 1 | No. plants with <20% injury (Arabidopsis [1]; [4]): 1 | No. plants with >40% injury (Arabidopsis [1]; [4]): 2 | % Injury Ave (Arabidopsis [1]; [5]): 26.3% | % Injury Range (%) (Arabidopsis [1]; [5]): 5-80% | No. plants with 20-40% injury (Arabidopsis [1]; [5]): 0 | No. plants with <20% injury (Arabidopsis [1]; [5]): 3 | No. plants with >40% injury (Arabidopsis [1]; [5]): 1 | % Injury Ave (Arabidopsis [1]; [6]): 25.8% | % Injury Range (%) (Arabidopsis [1]; [6]): 8-75% | No. plants with 20-40% injury (Arabidopsis [1]; [6]): 0 | No. plants with <20% injury (Arabidopsis [1]; [6]): 3 | No. plants with >40% injury (Arabidopsis [1]; [6]): 1 | % Injury Ave (Arabidopsis [1]; [7]): 26.3% | % Injury Range (%) (Arabidopsis [1]; [7]): 5-80% | No. plants with 20-40% injury (Arabidopsis [1]; [7]): 0 | No. plants with <20% injury (Arabidopsis [1]; [7]): 3 | No. plants with >40% injury (Arabidopsis [1]; [7]): 1 | % Injury Ave (Arabidopsis [1]; [8]): 2.0% | % Injury Range (%) (Arabidopsis [1]; [8]): 0-8% | No. plants with 20-40% injury (Arabidopsis [1]; [8]): 0 | No. plants with <20% injury (Arabidopsis [1]; [8]): 4 | No. plants with >40% injury (Arabidopsis [1]; [8]): 0 | % Injury Ave (Arabidopsis [1]; [9]): 9.0% | % Injury Range (%) (Arabidopsis [1]; [9]): 8-12% | No. plants with 20-40% injury (Arabidopsis [1]; [9]): 0 | No. plants with <20% injury (Arabidopsis [1]; [9]): 4 | No. plants with >40% injury (Arabidopsis [1]; [9]): 0 | % Injury Ave (Arabidopsis [1]; [10]): 7.3% | % Injury Range (%) (Arabidopsis [1]; [10]): 2-12% | No. plants with 20-40% injury (Arabidopsis [1]; [10]): 0 | No. plants with <20% injury (Arabidopsis [1]; [10]): 4 | No. plants with >40% injury (Arabidopsis [1]; [10]): 0 | % Injury Ave (Arabidopsis [1]; [11]): 11.0% | % Injury Range (%) (Arabidopsis [1]; [11]): 10-12% | No. plants with 20-40% injury (Arabidopsis [1]; [11]): 0 | No. plants with <20% injury (Arabidopsis [1]; [11]): 4 | No. plants with >40% injury (Arabidopsis [1]; [11]): 0 | T1 Families Tested Segregating at 1 Locus (%) (Arabidopsis [2]): 100%

B2: pDAB105533: TraP12 v2 -- dgt-28 v5: binary construct TraP12 v2: dgt-28 v5 (SEQ ID NO:36) (nucleic acid)
DNA: ATGGCACAATCTAGCAGAATCTGCCACGGTGTGCAGAACCCATGTGTGATCATTTCAAATCTCTCAAAGTCCAATCAGAACAAATCACCTTTCTCCGTCTCCCTCAAGACACACCAGCATCCAAGGGCATACCCGATAAGCAGCTCATGGGGACTCAAGAAGAGCGGAATGACTCTGATTGGCTCTGAGCTTCGTCCTCTTAAGGTTATGTCCTCTGTTTCCGCAGCAAGAGGGATGCCAGCCTTGTCTTTACCTGGATCAAAGAGTATCACAGCTAGGGCACTCTTTCTTGCTGCTGCTGCTGATGGGGTTACTACTTTGGTGAGGCCATTGAGAAGTGACGACACAGAAGGATTCGCTGAGGGGTTAGTTCGTTTAGGCTATCGTGTAGGGAGGACACCCGATACTTGGCAAGTCGATGGCAGACCACAAGGACCAGCAGTGGCTGAGGCTGACGTCTACTGTAGAGACGGAGCAACCACCGCTAGATTCTTGCCAACCTTAGCAGCTGCTGGTCACGGAACATACAGATTTGATGCTTCACCACAGATGAGGAGACGTCCTCTTTTGCCCTTAAGCAGAGCCTTGAGGGATTTGGGTGTCGATCTTAGACACGAAGAAGCTGAAGGTCATCACCCTCTGACTGTCCGTGCTGCTGGGGTTGAAGGAGGAGAGGTTACTTTGGATGCTGGTCAGTCAAGTCAGTATCTCACTGCCTTGTTGCTCCTTGGTCCCCTTACAAGACAAGGACTGAGGATAAGGGTTACTGATTTGGTGTCAGCACCATACGTGGAGATTACGCTTGCAATGATGAGGGCTTTCGGAGTTGAAGTGGCAAGGGAGGGAGATGTGTTCGTTGTTCCACCTGGTGGATATCGTGCAACTACGTATGCTATAGAACCCGACGCAAGTACTGCTTCTTACTTCTTCGCAGCTGCTGCTTTGACTCCTGGAGCTGAAGTGACTGTACCTGGGTTAGGCACGGGAGCACTTCAAGGAGATTTGGGATTTGTAGATGTCTTAAGGAGAATGGGAGCCGAGGTGTCCGTAGGAGCTGATGCAACCACTGTTAGAGGAACTGGTGAATTGCGTGGCCTTACAGCCAACATGAGAGACATAAGTGATACGATGCCGACCCTCGCTGCAATAGCACCCTTTGCTAGTGCTCCAGTTAGAATCGAGGATGTTGCCAACACTCGTGTCAAAGAATGTGACAGACTTGAGGCTTGTGCAGAGAACCTTAGGAGGTTGGGAGTAAGGGTTGCAACGGGTCCGGACTGGATTGAGATACACCCTGGTCCAGCTACTGGTGCTCAAGTCACAAGCTATGGTGATCACAGAATTGTGATGTCATTTGCAGTGACTGGACTTCGTGTGCCTGGGATCAGCTTCGACGACCCTGGCTGTGTTCGTAAGACTTTTCCTGGGTTTCACGAGGCTTTCGCAGAATTGAGGCGTGGCATTGGGAGCTGA
modifications: In-frame fusion of dgt-28 v5 and TraP12 v2
% Injury Ave (Arabidopsis [1]; [3]): 10.0% | % Injury Range (%) (Arabidopsis [1]; [3]): 0-25% | No. plants with 20-40% injury (Arabidopsis [1]; [3]): 1 | No. plants with <20% injury (Arabidopsis [1]; [3]): 4 | No. plants with >40% injury (Arabidopsis [1]; [3]): 0 | % Injury Ave (Arabidopsis [1]; [4]): 53.6% | % Injury Range (%) (Arabidopsis [1]; [4]): 8-85% | No. plants with 20-40% injury (Arabidopsis [1]; [4]): 1 | No. plants with <20% injury (Arabidopsis [1]; [4]): 1 | No. plants with >40% injury (Arabidopsis [1]; [4]): 3 | % Injury Ave (Arabidopsis [1]; [5]): 11.0% | % Injury Range (%) (Arabidopsis [1]; [5]): 0-20% | No. plants with 20-40% injury (Arabidopsis [1]; [5]): 1 | No. plants with <20% injury (Arabidopsis [1]; [5]): 4 | No. plants with >40% injury (Arabidopsis [1]; [5]): 0 | % Injury Ave (Arabidopsis [1]; [6]): 55.0% | % Injury Range (%) (Arabidopsis [1]; [6]): 25-80% | No. plants with 20-40% injury (Arabidopsis [1]; [6]): 2 | No. plants with <20% injury (Arabidopsis [1]; [6]): 0 | No. plants with >40% injury (Arabidopsis [1]; [6]): 3 | % Injury Ave (Arabidopsis [1]; [7]): 11.0% | % Injury Range (%) (Arabidopsis [1]; [7]): 0-20% | No. plants with 20-40% injury (Arabidopsis [1]; [7]): 1 | No. plants with <20% injury (Arabidopsis [1]; [7]): 4 | No. plants with >40% injury (Arabidopsis [1]; [7]): 0 | % Injury Ave (Arabidopsis [1]; [8]): 0.0% | % Injury Range (%) (Arabidopsis [1]; [8]): 0% | No. plants with 20-40% injury (Arabidopsis [1]; [8]): 0 | No. plants with <20% injury (Arabidopsis [1]; [8]): 4 | No. plants with >40% injury (Arabidopsis [1]; [8]): 0 | % Injury Ave (Arabidopsis [1]; [9]): 0.0% | % Injury Range (%) (Arabidopsis [1]; [9]): 0% | No. plants with 20-40% injury (Arabidopsis [1]; [9]): 0 | No. plants with <20% injury (Arabidopsis [1]; [9]): 4 | No. plants with >40% injury (Arabidopsis [1]; [9]): 0 | % Injury Ave (Arabidopsis [1]; [10]): 0.0% | % Injury Range (%) (Arabidopsis [1]; [10]): 0% | No. plants with 20-40% injury (Arabidopsis [1]; [10]): 0 | No. plants with <20% injury (Arabidopsis [1]; [10]): 4 | No. plants with >40% injury (Arabidopsis [1]; [10]): 0 | % Injury Ave (Arabidopsis [1]; [11]): 13.3% | % Injury Range (%) (Arabidopsis [1]; [11]): 8-25% | No. plants with 20-40% injury (Arabidopsis [1]; [11]): 1 | No. plants with <20% injury (Arabidopsis [1]; [11]): 3 | No. plants with >40% injury (Arabidopsis [1]; [11]): 0 | T1 Families Tested Segregating at 1 Locus (%) (Arabidopsis [2]): 50%
